B1: IL27 (complex)
chain 1: FPRPPGRPQLSLQELRREFTVSLHLARKLLSEVRGQAHRFAESHLPGVNLYLLPLGEQLPDVSLTFQAWRRLSDPERLCFISTTLQPFHALLGGLGTQGRWTNMERMQLWAMRLDLRDLQRHLRFQVLAAGFNLPEEEEEEEEEEEEERKGLLPGALGSALQGPAQVSWPQLLSTYRLLHSLELVLSRAVRELLLLSKAGHSVWPLGFPTLSPQP
chain 2: RKGPPAALTLPRVQCRASRYPIAVDCSWTLPPAPNSTSPVSFIATYRLGMAARGHSWPCLQQTPTSTSCTITDVQLFSMAPYVLNVTAVHPWGSSSSFVPFITEHIIKPDPPEGVRLSPLAERQLQVQWEPPGSWPFPEIFSLKYWIRYKRQGAARFHRVGPIEATSFILRAVRPRARYYVQVAAQDLTDYGELSDWSLPATATMSLGK
B2: CCL13 (ligand)
chain: not shown
B3: CXCL11 (ligand)
chain: FPMFKRGRCLCIGPGVKAVKVADIEKASIMYPSNNCDKIEVIITLKENKGQRCLNPKSKQARLIIKKVERKNF
B4: CCL26 (ligand)
chain: TRGSDISKTCCFQYSHKPLPWTWVRSYEFTSNSCSQRAVIFTTKRGKKVCTHPRKKWVQKYISLLKTPKQL
B5: CCL28 (ligand)
chain: SEAILPIASSCCTEVSHHISRRLLERVNMCRIQRADGDCDLAAVILHVKRRRICVSPHNHTVKQWMKVQAAKKNGKGNVCHRKKHHGKRNSNRAHQGKHETYGHKTPY
B6: CCL5 (ligand)
chain: SPYSSDTTPCCFAYIARPLPRAHIKEYFYTSGKCSNPAVVFVTRKNRQVCANPEKKWVREYINSLEMS
B7: CCL21 (ligand)
chain: SDGGAQDCCLKYSQRKIPAKVVRSYRKQEPSLGCSIPAILFLPRKRSQAELCADPKELWVQQLMQHLDKTPSPQKPAQGCRKDRGASKTGKKGKGSKGCKRTERSQTPKGP
B8: CXCL14 (ligand)
chain: SKCKCSRKGPKIRYSDVKKLEMKPKYPHCEEKMVIITTKSVSRYRGQEHCLHPKLQSTKRFIKWYNAWNEKRRVYEE
B9: CXCL9 (ligand)
chain: TPVVRKGRCSCISTNQGTIHLQSLKDLKQFAPSPSCEKIEIIATLKNGVQTCLNPDSADVKELIKKWEKQVSQKKKQKNGKKHQKKKVLKVRKSQRSRQKKTT
B10: CCL25 (ligand)
chain: QGVFEDCCLAYHYPIGWAVLRRAWTYRIQEVSGSCNLPAAIFYLPKRHRKVCGNPKSREVQRAMKLLDARNKVFAKLHHNTQTFQAGPHAVKKLSSGNSKLSSSKFSNPISSSKRNVSLLISANSGL
B11: CCL11 (ligand)
chain: not shown
B12: CXCL13 (ligand)
chain: VLEVYYTSLRCRCVQESSVFIPRRFIDRIQILPRGNGCPRKEIIVWKKNKSIVCVDPQAEWIQRMMEVLRKRSSSTLPVPVFKRKIP
B13: HCoV-OC43 nucleocapsid (N) protein, 2X-StrepTag tagged (natural protein)
chain: MSFTPGKQSSSRASSGNRSGNGILKWADQSDQVRNVQTRGRRAQPKQTATSQQPSGGNVVPYYSWFSGITQFQKGKEFEFVEGQGPPIAPGVPATEAKGYWYRHNRGSFKTADGNQRQLLPRWYFYYLGTGPHAKDQYGTDIDGVYWVASNQADVNTPADIVDRDPSSDEAIPTRFPPGTVLPQGYYIEGSGRSAPNSRSTSRTSSRASSAGSRSRANSGNRTPTSGVTPDMADQIASLVLAKLGKDATKPQQVTKHTAKEVRQKILNKPRQKRSPNKQCTVQQCFGKRGPNQNFGGGEMLKLGTSDPQFPILAELAPTAGAFFFGSRLELAKVQNLSGNPDEPQKDVYELRYNGAIRFDSTLSGFETIMKVLNENLNAYQQQDGMMNMSPKPQRQRGHKNGQGENDNISVAVPKSRVQQNKSRELTAEDISLLKKMDEPYTEDTSEI

The first experiment addresses B13. The experiment can be described thus: BLI.
For the molecule B1, the Kd was found to be 55 nM, the koff was 0.0024 s⁻¹ and the on-rate (kon) was determined as 51000 M⁻¹ s⁻¹.
On the same counts, the results for B2 are 1600 nM, 0.025 s⁻¹ and 19000 M⁻¹ s⁻¹.
As for B3, binding was characterised by a dissociation constant (Kd) of 730 nM, the koff stood at 0.012 s⁻¹ and the association rate constant (kon) stood at 18000 M⁻¹ s⁻¹.
For B4, the equilibrium dissociation constant (Kd) worked out at 620 nM, the off-rate constant (koff) amounted to 0.014 s⁻¹ and the on-rate (kon) worked out at 20000 M⁻¹ s⁻¹.
Taken in the same sequence, the figures for B5 were 27 nM, 0.0015 s⁻¹ and 60000 M⁻¹ s⁻¹.
The molecule B6 returned a Kd of 56000 nM, a dissociation rate constant (koff) of 0.015 s⁻¹ and a kon of 2100 M⁻¹ s⁻¹.
On the same counts, the results for B7 are 290 nM, 0.012 s⁻¹ and 67000 M⁻¹ s⁻¹.
On to B8, for which the Kd was determined as 580 nM, the koff was 0.0063 s⁻¹ and the on-rate (kon) was 12000 M⁻¹ s⁻¹.
On to B9, for which binding was characterised by a dissociation constant (Kd) of 29 nM, the koff was 0.0022 s⁻¹ and the on-rate constant (kon) was found to be 82000 M⁻¹ s⁻¹.
For B10, the Kd was 610 nM, the koff came to 0.0048 s⁻¹ and the kon worked out at 8300 M⁻¹ s⁻¹.
Taken in the same sequence, the figures for B11 were 1400 nM, 0.021 s⁻¹ and 17000 M⁻¹ s⁻¹.
On the same counts, the results for B12 are 140 nM, 0.0046 s⁻¹ and 44000 M⁻¹ s⁻¹.

In the next experiment the target is CXCL12α (human, UniProt P48061-2 22-89). The experiment can be described thus: BLI.
Chain of CXCL12α (P48061 22-89): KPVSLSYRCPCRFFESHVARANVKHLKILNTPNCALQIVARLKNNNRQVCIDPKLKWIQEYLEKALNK
As to B13, the equilibrium dissociation constant (Kd) turned out to be 0.46 nM, the koff turned out to be 3.7e-05 s⁻¹ and the on-rate (kon) worked out at 62000 M⁻¹ s⁻¹.

In general, Kd refers to the free concentration of one partner at which half of the binding sites on the other are occupied at equilibrium, for simple one-to-one binding. A higher Kd goes with lower affinity. In general, koff refers to the rate constant with which the complex falls apart. A low value points to a long-lived complex. For orientation: kon means the rate constant with which the complex forms.

The values above are taken from paper PMC10334784 (Proceedings of the National Academy of Sciences of the …, 2023).
